In US12454527B2, “Conjugate monomethyl auristatin E to obtain a composition for treatment of prostate cancer” (priority 2019, dated 2025):
Values joined by “and” are separate entries in the source; they are usually repeats but may differ in a detail not shown here. Equal values may be shown once. Starred links: 1 amine or outer side, 2 acyl side, 3 side chain; linkers in the order of their positions; H or OH if unused. Non-standard residues stand in square brackets, D forms with d. Residues, ends and D or L forms follow the SMILES beside them. ξ: configuration not given here. *: point of attachment. GluureaLys(ε-3-ClBenzyl) = O=C(O)CC[C@H](NC(=O)N[C@@H](CCCCN(Cc1cccc(Cl)c1)*)C(=O)O)C(=O)O; Dolaproine = CO[C@@H]([C@@H]1CCCN1)[C@@H](C)C(=O)O; Dil = CC[C@H](C)[C@H](NC)[C@@H](CC(=O)O)OC; X1 = O=C(CCCc1cn(CCCN[*:1])nn1)[*:2]; PABC = O=C(OCc1ccc(N[*:1])cc1)[*:2]; X2 = C[C@@H](N*)[C@@H](O)c1ccccc1; Cit = NC(=O)NCCC[C@H](N)C(=O)O; Suc = O=C(CCC(=O)[*:2])[*:1]; NMeV = CN[C@H](C(=O)O)C(C)C; ξV = CC(C)C(N)C(=O)O; Ahx = NCCCCCC(=O)O

What was measured:
[1] = system: 22Rv1 prostate cancer s.c. xenografts; assay: Antineoplastic efficacy on 22Rv1 prostate cancer xenograft model (tumor growth inhibition); type: in vivo, mice; settings: for Tumor volume, V mean / TGI %: 22Rv1; for Tumor volume, V mean / TGI % / Tumor volume (individual tumors): 0.3 mg/kg i.p. x3; for TGI %: vs TGC; for Tumor volume (individual tumors): 22Rv1 s.c. xenograft, 0.3 mg/kg
Source text: The evaluation of antineoplastic Conjugate (I) efficacy on xenograft model of prostate cancer.
To study the drug efficacy the xenograft model was selected as a quite illustrative one for preclinical studies (Application of Prostate Cancer Models for Preclinical Study: Advantages and Limitations of Cell Lines, Patient-Derived Xenografts, and Three-Dimensional Culture of Patient-Derived Cells Takeshi Namekawa, Kazuhiro Kuniko Horie-Inoue, Satoshi Inoue Cells, 2019 January; 8(1), The criteria of antineoplastic activity were tumor growth inhibition (TGI) (Experimental assessment of antineoplastic agents in the USSR and USA/IEd. Ed. Sophyina Z. P., Syrkin A. B., Goldin F., Klein I.//J.: Medicine, 1980) in treated animals (Pon) compared with control (Pk), expressed as a percentage: […]
The treatment in all groups was started when tumor nodes were appeared.
Tumor growth was times at the end of study (Table 1).

[2] = Body weight of mice in lymphoid leukosis P388 model; type: in vivo
Description: Lymphoid Leukosis P388 (male mice BDF1)—observation was held for 30 days since the first product administration (the product administration was started 24 hours after revaccination) and it was administered 3 times intraperitoneally in a day.
• 1. Group 1—tumor growth control (TGC) • 2. Group 2—placebo (diluent) • 3. Group 3—intraperitoneal Conjugate (I) administration in a dose of 0.5 mg/kg 3 times; • 4. Group 4—intraperitoneal Conjugate (I) administration in a dose of 1.0 mg/kg 3 times:
Experimental animals of control group (TGC) were administered with 0.9% saline, the placebo group was injected with the diluent (DMSO+Haemodes) of similar volume. The antineoplastic activity was determined according to mice lifespan.

[3] = system: Melanoma B16; assay: Antineoplastic activity on melanoma B16 model (tumor growth inhibition); type: in vivo; settings: for Tumor volume, Mean / TGI %: B16, 1.0 mg/kg; for TGI %: vs TGC; for Tumor volume (individual tumors): s.c. B16 melanoma, 1.0 mg/kg i.p. x3, 1 mg/kg
Description: Melanoma B16-30 days after the first product administration (the product administration was started 48 hours after revaccination) and it was administered 3 times intraperitoneally in 5 days,
• 1. Group 1—diluent (placebo) • 2. Group 2—intraperitoneal Conjugate (I) administration in a dose of 1 mg/kg 3 times:
Experimental animals of control group (TGC) were administered with the diluent (DMSO+Haemodes) of similar Volume (placebo product). The measurement of tumor node was performed three times (on. Day 1, 4 and 8 after treatment completion), The antineoplastic activity was determined according to the standard parameters: tumor growth inhibition TGI (>50%). The survival observation was continued up to 30 days (Table 3).

[4] = Acute toxicity study, single intravenous administration, mice; type: in vivo; settings: for Body weight dynamics (individual animals): listed as test drug
Source text: Acute toxicity study of Conjugate (I) product on mice and rats.
• 1. Conjugate (I). • 2. Solubilizer Pluronic F127—in the amount, five-fold greater than the conjugate amount by weight. • 3. Diluent Haemodes infusion solution. • 4. Dimethyl sulfoxide—in the amount of 5% of the prepared volume.
The experiment took white outbred male mice aged about 2 months with body weight of 19-21,g, and also white outbred mature male rats aged about 2 months with body weight 190-210 g.
Acute toxicity study was performed within the intravenous administration. Before the start of the experiment to determine an acute toxicity, the animals were deprived of food and water (mice were deprived for 2 hours, rats—for 10-12 hours), and then weighed. Then each animal received the intravenous drug injection according to the study design, in a volume not exceeding the acceptable single injection volume: 0.5 mL for mice, 2 mL for rats, and fractionally if necessary. The control group of animals received Pluronic solution in Haemodes in the proportion used fort dose preparation of 78 mg/kg for mice and 38 mg/kg for rats. The duration of observation for laboratory animals was 14 days. During this period, visible signs of intoxication were assessed (see Table 9).

## CC[C@H](C)[C@@H]([C@@H](CC(=O)N1CCC[C@H]1[C@H](OC)[C@@H](C)C(=O)N[C@H](C)[C@@H](O)c1ccccc1)OC)N(C)C(=O)[C@@H](NC(=O)[C@H](C(C)C)N(C)C(=O)OCc1ccc(NC(=O)[C@H](CCCNC(N)=O)NC(=O)C(NC(=O)CCCc2cn(CCCNC(=O)[C@H](Cc3ccc(O)cc3)NC(=O)[C@H](Cc3ccccc3)NC(=O)CCC(=O)NCCCCCC(=O)N(CCCC[C@H](NC(=O)N[C@@H](CCC(=O)O)C(=O)O)C(=O)O)Cc3cccc(Cl)c3)nn2)C(C)C)cc1)C(C)C (some centres unmarked) [Conjugate (I)] ({GluureaLys(ε-3-ClBenzyl)-Ahx-Suc}-FY[X1][ξV][Cit][PABC][NMeV]V[Dil][Dolaproine]-X2)
[1]; day 1
  Tumor volume, V mean: 28 mm^3
[1]; day 1 after treatment completion
  TGI %: 83%
[1]; day 4
  Tumor volume, V mean: 83 mm^3
  TGI %: 85%
[1]; day 8
  Tumor volume, V mean: 341 mm^3
  TGI %: 70%
[1]; day 1 after treatment
  Tumor volume (individual tumors): 22 mm^3 and 17 mm^3 (2×) and 45 mm^3 and 14 mm^3 and 19 mm^3 and 30 mm^3 (2×) and 32 mm^3 and 31 mm^3 and 51 mm^3 and 34 mm^3 and 18 mm^3 and 40 mm^3
[1]; day 4 after treatment
  Tumor volume (individual tumors): 72 mm^3 (2×) and 42 mm^3 and 75 mm^3 and 38 mm^3 and 78 mm^3 and 173 mm^3 and 63 mm^3 and 108 mm^3 and 115 mm^3 and 65 mm^3 and 74 mm^3 and 102 mm^3 and 81 mm^3
[1]; day 8 after treatment
  Tumor volume (individual tumors): 346 mm^3 and 111 mm^3 and 369 mm^3 and 186 mm^3 and 463 mm^3 and 597 mm^3 and 570 mm^3 and 314 mm^3 and 853 mm^3 and 177 mm^3 and 247 mm^3 and 349 mm^3 and 94 mm^3 and 96 mm^3
[1]; mouse, in vivo
  Dose achieving effective tumor growth inhibition (TGI): approximately 0.3 mg/kg
[2]; 0.5 mg/kg, day 0, in g (unit assumed)
  Body weight of mice: 19.9 ± 0.36
[2]; 0.5 mg/kg, day 2, in g (unit assumed)
  Body weight of mice: 19.2 ± 0.28
[2]; 0.5 mg/kg, day 4, in g (unit assumed)
  Body weight of mice: 19.2 ± 0.32
[2]; 1.0 mg/kg, day 0, in g (unit assumed)
  Body weight of mice: 19.7 ± 0.36
[2]; 1.0 mg/kg, day 2, in g (unit assumed)
  Body weight of mice: 19.7 ± 0.48
[2]; 1.0 mg/kg, day 4, in g (unit assumed)
  Body weight of mice: 19.7 ± 0.42
[3]; day 1
  Tumor volume, Mean: 66 mm^3
  TGI %: 75%
[3]; day 4
  Tumor volume, Mean: 433 mm^3
  TGI %: 62%
  Tumor volume (individual tumors): 768 mm^3 and 364 mm^3 and 476 mm^3 and 220 mm^3 and 544 mm^3 and 525 mm^3 and 120 mm^3 and 448 mm^3
[3]; day 8
  Tumor volume, Mean: 898 mm^3
  TGI %: 61%
  Tumor volume (individual tumors): 1,030 mm^3 and 855 mm^3 (2×) and 1,045 mm^3 and 675 mm^3 and 1,144 mm^3 and 972 mm^3 and 560 mm^3
[3]; day 1 after treatment
  Tumor volume (individual tumors): 135 mm^3 and 72 mm^3 and 64 mm^3 (2×) and 48 mm^3 and 90 mm^3 and 36 mm^3 and 16 mm^3
[4]; male mice, 3 mg/kg, Day 5
  Body weight dynamics, M ± SD: −13.2 ± 5.1 % of initial body weight
[4]; male mice, 3 mg/kg, Day 5, 3 mg/kg
  Body weight dynamics (individual animals): −6.3 % of initial body weight and −19.0 % of initial body weight and −15.4 % of initial body weight and −22.1 % of initial body weight and −11.0 % of initial body weight and −11.4 % of initial body weight and −13.3 % of initial body weight and −13.8 % of initial body weight and −5.6 % of initial body weight and −13.9 % of initial body weight
[4]; male mice, 3 mg/kg, Day 10
  Body weight dynamics, M ± SD: 9.9 ± 11.7 % of initial body weight
[4]; male mice, 3 mg/kg, Day 10, 3 mg/kg
  Body weight dynamics (individual animals): 0.0 % of initial body weight and 16.8 % of initial body weight and 18.8 % of initial body weight and −9.1 % of initial body weight and 18.6 % of initial body weight and 16.3 % of initial body weight and 13.8 % of initial body weight and 17.9 % of initial body weight and 18.9 % of initial body weight and −9.9 % of initial body weight
[4]; male mice, 3 mg/kg, Day 14
  Body weight dynamics, M ± SD: 29.1 ± 9.1 % of initial body weight
[4]; male mice, 3 mg/kg, Day 14, 3 mg/kg
  Body weight dynamics (individual animals): 36.1 % of initial body weight and 30.5 % of initial body weight and 32.7 % of initial body weight and 13.9 % of initial body weight and 34.3 % of initial body weight and 35.1 % of initial body weight and 25.7 % of initial body weight and 35.7 % of initial body weight and 35.2 % of initial body weight and 11.9 % of initial body weight
[4]; male mice, 5 mg/kg, Day 5
  Body weight dynamics, M ± SD: −20.9 ± 7.6 % of initial body weight
[4]; male mice, 5 mg/kg, Day 5, 5 mg/kg
  Body weight dynamics (individual animals): −27.1 % of initial body weight and −14.3 % of initial body weight and −28.2 % of initial body weight and −23.8 % of initial body weight and −26.1 % of initial body weight and −6.0 % of initial body weight and −22.4 % of initial body weight and −12.0 % of initial body weight and −21.0 % of initial body weight and −27.8 % of initial body weight
[4]; male mice, 5 mg/kg, Day 10
  Body weight dynamics, M ± SD: −4.3 ± 13.0 % of initial body weight
[4]; male mice, 5 mg/kg, Day 10, 5 mg/kg
  Body weight dynamics (individual animals): −6.7 % of initial body weight and −12.9 % of initial body weight and 1.0 % of initial body weight and −20.8 % of initial body weight and 13.9 % of initial body weight and −18.0 % of initial body weight and 16.8 % of initial body weight and −5.2 % of initial body weight and −6.8 % of initial body weight
[4]; male mice, 5 mg/kg, Day 14
  Body weight dynamics, M ± SD: 20.5 ± 10.5 % of initial body weight
[4]; male mice, all test doses
  Body weight effect (summary): decreased growth rate or decreased body weight regarding the initial one
[4]; male mice, i.v. 3 mg/kg
  Fatality: 0
[4]; male mice, i.v. 5 mg/kg
  Fatality: 1
[4]; male mice, i.v. 6 mg/kg
  Fatality: 3
[4]; male mice, i.v. 7 mg/kg
  Fatality: 10
[4]; male, white outbred, mouse, in vivo, iv, mice, single i.v., read-out: Maximum tolerated dose
  MTD at 14 days: 3 mg/kg
[4]; mice, acute i.v.
  Toxic effect (summary): renal damage, decreased motor activity, dose-dependent hindlimb paresis
[4]; mice, single i.v. 2 mg/kg
  Signs of intoxication: No signs of intoxication
